This is an account of results in patent publication US20240207432A1 (BIOSION, published 2024).

In assay [1] the target is T1, human TROP2-his protein (human, UniProt P09758 27-274).
T1 construct: Biotin-labelled in the ELISAs, unlabelled analyte in Biacore; also called biotin-labeled human TROP2-his protein; biotin human Trop2-his
T1 sequence: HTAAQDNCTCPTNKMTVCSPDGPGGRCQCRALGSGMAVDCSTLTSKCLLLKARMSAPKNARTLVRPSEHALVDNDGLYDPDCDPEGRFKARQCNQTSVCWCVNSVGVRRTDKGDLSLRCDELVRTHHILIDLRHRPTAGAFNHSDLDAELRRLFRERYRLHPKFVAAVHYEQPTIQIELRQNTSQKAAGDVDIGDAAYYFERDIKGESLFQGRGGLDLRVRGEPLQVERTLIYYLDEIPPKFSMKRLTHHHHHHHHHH
Put plainly: SPR Biacore, antibody captured on anti-human IgG CM5 chip, TROP2-his analyte. As for the experimental part: Un-reacted moieties on the chip (biosensor) surface were blocked with ethanolamine. […] The antigen-antibody association kinetics was followed for 2 minutes and the dissociation kinetics was followed for 10 minutes. The association and dissociation curves were fit to a 1:1 Langmuir binding model using BIAcore evaluation software.

The target of assay [2] is T2, cynomolgus TROP2-his protein (cynomolgus monkey, UniProt P09758 27-272 (human entry), limits assumed).
T2 construct: no cleavage site is stated; also called Cynomolgus monkey TROP2-his protein; monkey TROP2
T2 chain: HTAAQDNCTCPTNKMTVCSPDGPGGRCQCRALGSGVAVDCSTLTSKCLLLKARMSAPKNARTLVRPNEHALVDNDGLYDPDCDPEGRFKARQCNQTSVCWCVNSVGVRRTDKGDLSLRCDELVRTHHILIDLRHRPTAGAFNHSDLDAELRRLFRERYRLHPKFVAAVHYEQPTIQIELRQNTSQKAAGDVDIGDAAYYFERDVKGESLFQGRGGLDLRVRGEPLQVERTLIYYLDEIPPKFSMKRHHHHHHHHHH
Put plainly: indirect ELISA, cynomolgus TROP2-his coated, OD(450-630).

For assay [3], the target named is T1, human TROP2-his protein. Briefly: capture ELISA, antibody captured on anti-human IgG Fc coat, biotin human TROP2-his in solution, OD(450-630). As to the method:
Plates were washed once with wash buffer (PBS+0.05% v/v Tween-20, PBST) and then blocked with 200 μl/well blocking buffer (5% w/v non-fatty milk in PBST) for 2 hours at 37° C. […] Plates containing captured anti-TROP2 antibodies were incubated with biotin-labeled human TROP2-his protein (prepared in house, SEQ ID NO: 67, 56.7 ng/mL in 2.5% w/v non-fatty milk in PBST, 100 μl/well) for 40 minutes at 37° C., washed 4 times, and incubated with streptavidin conjugated HRP (1:10000 dilution in PBST, Jackson Immuno Research, Cat #016-030-084, 100 μl/well) for 40 minutes at 37° C. After a final wash, plates were incubated with 100 μl/well ELISA substrate TMB (Innoreagents, Cat #TMB-S-002) at room temperature. The reaction was stopped in 3-10 minutes at room temperature with 50 μl/well 1M H₂SO₄, and the absorbance of each well was read on a microplate reader using dual wavelength mode with 450 nm for TMB and 630 nm as the reference wavelength. The OD (450-630) values were plotted against antibody concentration. Data was analyzed using Graphpad Prism software and EC₅₀ values were reported.
For the capture ELISA, AffiniPure Goat Anti-Human IgG, Fcγ fragment specific (Jackson Immuno Research, Cat #109-005-098) was used instead of AffiniPure Goat Anti-Mouse IgG, Fcγ fragment specific, 100 μl/well.

Assay [4] has as its target T3, full length human TROP2 on 293F-TROP2 cells (human, UniProt P09758 27-323).
T3 construct: also called 293F-TROP2 cells (clone ID #3A8); cell surface TROP2
T3 sequence: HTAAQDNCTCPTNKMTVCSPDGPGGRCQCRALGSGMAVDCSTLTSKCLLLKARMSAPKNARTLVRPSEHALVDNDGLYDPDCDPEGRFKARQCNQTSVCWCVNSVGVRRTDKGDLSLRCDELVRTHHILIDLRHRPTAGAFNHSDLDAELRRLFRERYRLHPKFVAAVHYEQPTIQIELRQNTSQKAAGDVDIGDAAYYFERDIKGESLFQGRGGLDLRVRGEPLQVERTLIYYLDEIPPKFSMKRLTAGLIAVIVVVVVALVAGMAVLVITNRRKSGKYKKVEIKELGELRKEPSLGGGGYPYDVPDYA
Put plainly: FACS on 293F-TROP2 cells, MFI.

In assay [5] the target is T1, human TROP2-his protein. Put plainly: SPR Biacore T200, supernatant antibody captured on anti-human IgG CM5 chip, 40 nM human TROP2-his. As to the method: The goat anti-human IgG (GE healthcare, Cat #BR100839, Human Antibody Capture Kit) was covalently linked to a CM5 chip instead of goat anti-mouse IgG. […] The human TROP2-his protein at the concentration of 40 nM was used instead of serially diluted human TROP2-his protein.

Changes are numbered by the printed parent chain.

B1: chimeric C1B3B12D2 (antibody, human IgG1, kappa, V domains shown)
VH: QVQLQQSGPELVRPGTSVKMSCKAAGYTFTKFWIGWVKQRPGHGLEWIGNIYPGGAYINYNENFKGKATLTADTFSSTAYMQLNSLTSADSAIYYCAREGSSGYWGQGTTLTVSS
VL: DIVMTQSPSSLTVTAGEKVTLSCKCSQSLLNSGTQENYLTWYQQKPGQPPKMLIYWASIREPGVPDRFTGSGSGTDFTLTINNVQAEDLAVYYCQHDYSYPFTFGSGTKLEIKR
Turning to B1, in the assay with human TROP2-his protein [1], the Kd was 0.125 nM, the dissociation rate constant (koff) came to 9.54e-05 s⁻¹ and the on-rate constant (kon) was 763000 M⁻¹ s⁻¹. In assay [2], the 50% effective concentration (EC50) was determined as 0.26 nM. The molecule further yielded an EC50 with human TROP2-his protein [3] of 0.111 nM. This molecule also had a half-maximal effective concentration (EC50) in assay [4] of 0.81 nM.

B2: huA1E4F7D4-V2 (antibody, human IgG1, kappa, V domains shown)
VH: QVQLVQSGAEVKKPGASVKVSCKASGYSFTTHWIHWVRQAPGQGLEWIGTIFPSNAYAVYNQKFRDRATMTADRSISTAYIELSRLRSDDTAVYYCARASYFDYWGQGTTVTVSS
VL: EIVLTQSPATLSLSPGERATLSCRASQNIGTSIHWFQQKPGGSPRLLIKYASESISGIPSRFSGSGSGTDFTLTISSLEPEDFAVYYCQHSHSWPFTFGQGTKLEIKR
notes: Positions of the X residues are printed in CLM-00002, CLM-00003 and CLM-00005; Tested as cell supernatant
As to B2, in the assay with human TROP2-his protein [5], the dissociation constant Kd is 0.215 nM, the dissociation rate constant (koff) stood at 0.000188 s⁻¹ and the kon is 874000 M⁻¹ s⁻¹.

B3: huA1E4F7D4-V13 (antibody, human IgG1, kappa, V domains shown)
VH: B2 VH with S28T
VL: B2 VL with S43A
notes: Positions of the X residues are given in the claims; Tested as cell supernatant
Regarding B3, in the assay with human TROP2-his protein [5], the Kd was 0.221 nM, the koff was determined as 0.000199 s⁻¹ and the kon amounted to 898000 M⁻¹ s⁻¹.

B4: huA1E4F7D4-V15 (antibody, human IgG1, kappa, V domains shown)
VH: B2 VH with A72R
VL: B2 VL with S43A
notes: as for B3
Take B4: in the assay with human TROP2-his protein [5], binding was put at a Kd of 0.359 nM, the koff came out at 0.000205 s⁻¹ and the kon amounted to 571000 M⁻¹ s⁻¹.

B5: huA1E4F7D4-V6 (antibody, human IgG1, kappa, V domains shown)
VH: B2 VH with R74T
VL: B2 VL
notes: as for B3
For B5, in the assay with human TROP2-his protein [5], the equilibrium dissociation constant (Kd) stood at 0.166 nM, the koff was 0.000179 s⁻¹ and the association rate constant (kon) came out at 1.08e+06 M⁻¹ s⁻¹.

B6: huA1E4F7D4-V5 (antibody, human IgG1, kappa, V domains shown)
VH: B2 VH with A72R
VL: B2 VL
notes: as for B3
In the assay with human TROP2-his protein [5], B6 yielded a Kd of 0.353 nM, an off-rate (koff) of 0.000204 s⁻¹ and a kon of 577000 M⁻¹ s⁻¹.

B7: huA1E4F7D4-V19 (antibody, human IgG1, kappa, V domains shown)
VH: B2 VH with A68V
VL: B2 VL with K49Y
notes: as for B3
For B7, in the assay with human TROP2-his protein [5], the affinity, expressed as Kd, was 0.261 nM; the off-rate constant (koff) turned out to be 0.000304 s⁻¹; the kon is 1.16e+06 M⁻¹ s⁻¹.

B8: huA1E4F7D4-V9 (antibody, human IgG1, kappa, V domains shown)
VH: B2 VH with A68V
VL: B2 VL with G42Q
notes: as for B3
In the assay with human TROP2-his protein [5], B8 came in with a Kd of 0.223 nM, a koff of 0.000193 s⁻¹ and a kon of 865000 M⁻¹ s⁻¹.

B9: huA1E4F7D4-V7 (antibody, human IgG1, kappa, V domains shown)
VH: B2 VH
VL: B2 VL with G42Q
notes: as for B3
In the assay with human TROP2-his protein [5], B9 yielded a dissociation constant Kd of 0.216 nM, an off-rate (koff) of 0.000192 s⁻¹ and an association rate constant (kon) of 887000 M⁻¹ s⁻¹.

B10: huA1E4F7D4-V12 (antibody, human IgG1, kappa, V domains shown)
VH: B2 VH
VL: B2 VL with S43A
notes: as for B3
Consider B10, for which, in the assay with human TROP2-his protein [5], the dissociation constant (Kd) was found to be 0.211 nM, the koff is 0.000192 s⁻¹ and the association rate constant (kon) is 909000 M⁻¹ s⁻¹.

B11: huA1E4F7D4-V10 (antibody, human IgG1, kappa, V domains shown)
VH: B2 VH with A72R
VL: B2 VL with G42Q
notes: as for B3
In the assay with human TROP2-his protein [5], B11 yielded a Kd of 0.314 nM, a koff of 0.000206 s⁻¹ and an on-rate (kon) of 656000 M⁻¹ s⁻¹.

B12: huA1E4F7D4-V18 (antibody, human IgG1, kappa, V domains shown)
VH: B2 VH with S28T
VL: B2 VL with K49Y
notes: as for B3
In the assay with human TROP2-his protein [5], B12 gave a Kd of 0.23 nM, a dissociation rate constant (koff) of 0.00028 s⁻¹ and a kon of 1.22e+06 M⁻¹ s⁻¹.

B13: huA1E4F7D4-V1 (antibody, human IgG1, kappa, V domains shown)
VH: B2 VH with V37M, R38K, A40R, T69I, S84T
VL: B2 VL with E1D, V3L, L78V
notes: Positions of the X residues are printed in CLM-00003 and CLM-00005; Tested as cell supernatant
For B13, in the assay with human TROP2-his protein [5], binding was put at a Kd of 0.238 nM, the koff was determined as 0.000197 s⁻¹ and the kon was 830000 M⁻¹ s⁻¹.

B14: huA1E4F7D4-V4 (antibody, human IgG1, kappa, V domains shown)
VH: B2 VH with A68V
VL: B2 VL
notes: as for B3
In the assay with human TROP2-his protein [5], B14 registered a Kd of 0.215 nM, an off-rate constant (koff) of 0.00019 s⁻¹ and an on-rate constant (kon) of 883000 M⁻¹ s⁻¹.

B15: huA1E4F7D4-V8 (antibody, human IgG1, kappa, V domains shown)
VH: B2 VH with S28T
VL: B2 VL with G42Q
notes: as for B3
In the assay with human TROP2-his protein [5], B15 came in with a Kd of 0.235 nM, a koff of 0.000195 s⁻¹ and an on-rate (kon) of 832000 M⁻¹ s⁻¹.

B16: huA1E4F7D4-V14 (antibody, human IgG1, kappa, V domains shown)
VH: B2 VH with A68V
VL: B2 VL with S43A
notes: as for B3
Consider B16, for which, in the assay with human TROP2-his protein [5], the Kd was found to be 0.232 nM, the koff turned out to be 0.000193 s⁻¹ and the kon is 834000 M⁻¹ s⁻¹.

B17: huA1E4F7D4-V3 (antibody, human IgG1, kappa, V domains shown)
VH: B2 VH with S28T
VL: B2 VL
notes: as for B3
In the assay with human TROP2-his protein [5], B17 registered a Kd of 0.238 nM, an off-rate constant (koff) of 0.000199 s⁻¹ and a kon of 836000 M⁻¹ s⁻¹.

B18: huA1E4F7D4-V17 (antibody, human IgG1, kappa, V domains shown)
VH: B2 VH
VL: B2 VL with K49Y
notes: as for B3
For B18, in the assay with human TROP2-his protein [5], the dissociation constant (Kd) was found to be 0.232 nM, the off-rate (koff) stood at 0.000279 s⁻¹ and the on-rate (kon) amounted to 1.2e+06 M⁻¹ s⁻¹.

B19: huA1E4F7D4-V20 (antibody, human IgG1, kappa, V domains shown)
VH: B2 VH with A72R
VL: B2 VL with K49Y
notes: as for B3
On to B19, for which, in the assay with human TROP2-his protein [5], the Kd was determined as 0.335 nM, the koff is 0.00029 s⁻¹ and the on-rate (kon) came to 868000 M⁻¹ s⁻¹.

B20: huA1E4F7D4-V11 (antibody, human IgG1, kappa, V domains shown)
VH: B2 VH with R74T
VL: B2 VL with G42Q
notes: as for B3
B20: in the assay with human TROP2-his protein [5], binding was characterised by a dissociation constant (Kd) of 0.163 nM, the koff was determined as 0.000175 s⁻¹ and the kon stood at 1.08e+06 M⁻¹ s⁻¹.

B21: huA1E4F7D4-V21 (antibody, human IgG1, kappa, V domains shown)
VH: B2 VH with R74T
VL: B2 VL with K49Y
notes: as for B3
In the assay with human TROP2-his protein [5], B21 displayed a Kd of 0.188 nM, an off-rate constant (koff) of 0.000271 s⁻¹ and a kon of 1.44e+06 M⁻¹ s⁻¹.

One may read the Kd as the free concentration of one partner at which half of the binding sites on the other are occupied at equilibrium, for simple one-to-one binding. One may read the koff as a measure of how fast the partners let go of each other. For orientation: kon means the rate constant with which the complex forms. A low value points to slower complex formation. The term EC50 denotes the concentration that produces a half-maximal response.
